Experimental findings from article PMC6484134 (The Journal of Biological Chemistry, 2019) are described below.

Bounds are passed on as bounds.

Data set [1] deals with the molecule itself. Description: […]; room temperature; […]; 20 mM HEPES, 150 mM NaCl, 2 mM DTT; […].
For data set [2], the target named is T1, Cul3N (human Cul3 N-terminal domain, residues 1–388, I342R L346D) (human, UniProt Q13618 1-388, I342R | L346D).
T1 construct: also called Cul3–NTD
Description: ITC; 25 °C; 20 mM HEPES, 200 mM NaCl, 1 mM DTT; […] (70–[…]) […]. The settings on record: both partners purified. Background: ITC needs no label: the signal is the heat of the interaction.

Data set [3] deals with T2, Cul3NΔ22 (human Cul3 N-terminal domain, residues 23–388, I342R L346D) (human, UniProt Q13618 23-388, I342R | L346D).
T2 construct: also called Cul3–NTD; Cu3NΔ22
The data set is described as above. The settings on record: both partners purified.

T1 sequence (Q13618 1-388 I342R/L346D): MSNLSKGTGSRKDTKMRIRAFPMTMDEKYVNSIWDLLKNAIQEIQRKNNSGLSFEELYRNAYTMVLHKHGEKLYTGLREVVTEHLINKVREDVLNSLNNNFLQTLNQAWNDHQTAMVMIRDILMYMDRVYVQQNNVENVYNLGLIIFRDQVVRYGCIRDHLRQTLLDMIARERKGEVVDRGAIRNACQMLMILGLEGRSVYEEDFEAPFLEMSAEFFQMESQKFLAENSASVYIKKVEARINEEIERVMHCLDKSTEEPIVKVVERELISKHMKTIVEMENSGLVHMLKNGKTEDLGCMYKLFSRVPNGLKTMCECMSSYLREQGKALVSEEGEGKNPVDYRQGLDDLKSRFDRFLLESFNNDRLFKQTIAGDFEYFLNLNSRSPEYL
T2 sequence (Q13618 23-388 I342R/L346D): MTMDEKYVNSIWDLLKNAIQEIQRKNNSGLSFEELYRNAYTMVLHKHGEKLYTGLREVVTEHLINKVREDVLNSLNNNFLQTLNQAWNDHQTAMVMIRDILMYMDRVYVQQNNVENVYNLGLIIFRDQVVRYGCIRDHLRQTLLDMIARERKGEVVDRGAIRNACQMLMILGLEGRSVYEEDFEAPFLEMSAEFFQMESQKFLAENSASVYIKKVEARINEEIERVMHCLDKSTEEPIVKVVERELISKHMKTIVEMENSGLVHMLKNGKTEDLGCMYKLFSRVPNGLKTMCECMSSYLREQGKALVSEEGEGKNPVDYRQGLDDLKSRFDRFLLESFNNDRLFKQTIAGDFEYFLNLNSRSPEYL

B1: A55BB (A55 BTB-BACK domain, residues 1–250), wild type (domain or fragment)
chain: MNNSSELIAVINGFRNSGRFCDISIVINDERINAHKLILSGASEYFSILFSNNFIDSNEYEVNLSHLDYQSVNDLIDYIYGIPLSLTNDNVKYILSTADFLQIGSAITECENYILKNLCSKNCIDFYIYADKYNNKKIESASFNTILQNILRLINDENFKYLTEESMIKILSDDMLNIKNEDFAPLILIKWLESTQQSCTVELLRCLRISLLSPQVIKSLYSHQLVSSIYECITFLNNIAFLDESFPRYH
In general, stoichiometry N refers to the number of molecules, sites or subunits per partner or assembly. Broadly, the Kd is the free concentration of one partner at which half of the binding sites on the other are occupied at equilibrium, for simple one-to-one binding. As for B1, the “stoichiometry N” value in data set [1] worked out at 2. Besides, the Kd in data set [2] was less than 1 nM; in data set [3], 5.3 nM. Besides, the dH was -17.7 kcal/mol in data set [2] and -9.9 kcal/mol in data set [3].
